According to article PMC11311238:

Biological target: phycobilisome core (CK) of allophycocyanin cylinders from a Synechocystis PCC 6803 mutant lacking the rods (Synechocystis sp. PCC 6803 (endogenous in the rod-less mutant)) (UniProt Q01951)

fraction of the decay of excited CK bilins that is quenched (112 ps component) in CK-NTD, transient absorption with excitation at 694 nm: 76%
B1: N-terminal domain (NTD) of the orange carotenoid protein (OCP) binding canthaxanthin (holo-NTD) (domain or fragment)
chain: VPATIARFSQLNAEDQLALIWFAYLEMGKTLTIAAPGAASMQLAENALKEIQAMGPLQQTQAMCDLANRADTPLCRTYASWSPNIKLGFWYRLGELMEQGFVAPIPAGYQLSANANAVLATIQGLESGQQITVLRNAVVDMGFTA
